Where a chain is given by its changes, count along the chain named. Numbers in names are those of the source.
B1: H240-Kn061/H240-Hl134/L73-k0 (antibody, human IgG1, kappa)
heavy 1: QDQLVQSGAEVKKPGASVKVSCKASGFNIKDTYIQWVRQAPGQGLEWMGRIDPLRKQTKYREKFEGRVTITADTSTNTAYMELSSLRSEDTAVYYCVRSGREFDYWGQGTLVTVSSASTKGPSVFPLAPSSKSTSGGTAALGCLVKDYFPEPVTVSWNSGALTSGVHTFPAVLQSSGLYSLSSVVTVPSSSLGTQTYICNVNHKPSNTKVDKKVEPKSCDKTHTCPPCPAPEYYWGPSVFLFPPKPKDTLMISRTPEVTCVVVDVSDEDPEVKFNWYVDGVEVHNAKTKPREEQYNATYRVVSVLTVLHQDWLNGKEYKCKVSNKALPAPIEKTISKAKGQPREPQVCTLPPSRDELTKNQVSLWCLVKGFYPSDIAVEWESNGQPENNYKTTPPVLDSDGSFFLYSKLTVDKSRWQQGNVFSCSVMHEALHNHYTQKSLSLSP
heavy 2: B1 heavy 1 with C348Y, D355C, W365S, L367A, Y406V
light: DIQMTQSPSSLSASVGDRVTITCRASQDIHKYIAWYQQKPGQAPRLLIQYTSTLQPGVPSRFSGSGSGTDYTFTISSLQPEDIATYYCLQYEQLRTFGGGTKVEIKRTVAAPSVFIFPPSDEQLKSGTASVVCLLNNFYPREAKVQWKVDNALQSGNSQESVTEQDSKDSTYSLSSTLTLSKADYEKHKVYACEVTHQGLSSPVTKSFNRGEC
notes: anti-epiregulin IgG1 called homodimerized: L234Y/L235Y/G236W/H268D/S298A in both H chains; also called H240-Kn061/H240-HI134/L73-k0
B2: H240-Kn132/H240-Hl071/L73-k0 (antibody, human IgG1, kappa)
heavy 1: B1 heavy 1 with Y233L, Y234L, W235G, D267H, A297S, K325D, A329M, K333E
heavy 2: QDQLVQSGAEVKKPGASVKVSCKASGFNIKDTYIQWVRQAPGQGLEWMGRIDPLRKQTKYREKFEGRVTITADTSTNTAYMELSSLRSEDTAVYYCVRSGREFDYWGQGTLVTVSSASTKGPSVFPLAPSSKSTSGGTAALGCLVKDYFPEPVTVSWNSGALTSGVHTFPAVLQSSGLYSLSSVVTVPSSSLGTQTYICNVNHKPSNTKVDKKVEPKSCDKTHTCPPCPAPELLGGPSVFLFPPKPKDTLMISRTPEVTCVVVDVSHEDPEVKFNWYVDGVEVHNAKTKPREEQYNSTYRVVSVLTVLHQDWLNGKEYKCKVSNDALPMPIEETISKAKGQPREPQVYTLPPSRCELTKNQVSLSCAVKGFYPSDIAVEWESNGQPENNYKTTPPVLDSDGSFFLVSKLTVDKSRWQQGNVFSCSVMHEALHNHYTQKSLSLSP
light: B1 light
notes: anti-epiregulin IgG1 called homodimerized: K326D/A330M/K334E in both H chains; also called H240-Kn132/H240-HI071/L73-k0
B3: GpH7-A5/GpH7-B3/GpL16-k0 (antibody, human IgG1, kappa)
heavy 1: not shown
heavy 2: not shown
light: DIVMTQSPLSLPVTPGEPASISCQASESLVHSNRNTYLHWYLQKPGQSPQLLIYKVSNRFSGVPDRFSGSGSGTDFTLKISRVEAEDVGVYYCSQNTHVPPTFGQGTKVEIERTVAAPSVFIFPPSDEQLKSGTASVVCLLNNFYPREAKVQWKVDNALQSGNSQESVTEQDSKDSTYSLSSTLTLSKADYEKHKVYACEVTHQGLSSPVTKSFNRGEC
notes: also called HeCon Ab
B4: GpH7-G1d/GpL16-k0 (antibody, human IgG1, kappa)
heavy: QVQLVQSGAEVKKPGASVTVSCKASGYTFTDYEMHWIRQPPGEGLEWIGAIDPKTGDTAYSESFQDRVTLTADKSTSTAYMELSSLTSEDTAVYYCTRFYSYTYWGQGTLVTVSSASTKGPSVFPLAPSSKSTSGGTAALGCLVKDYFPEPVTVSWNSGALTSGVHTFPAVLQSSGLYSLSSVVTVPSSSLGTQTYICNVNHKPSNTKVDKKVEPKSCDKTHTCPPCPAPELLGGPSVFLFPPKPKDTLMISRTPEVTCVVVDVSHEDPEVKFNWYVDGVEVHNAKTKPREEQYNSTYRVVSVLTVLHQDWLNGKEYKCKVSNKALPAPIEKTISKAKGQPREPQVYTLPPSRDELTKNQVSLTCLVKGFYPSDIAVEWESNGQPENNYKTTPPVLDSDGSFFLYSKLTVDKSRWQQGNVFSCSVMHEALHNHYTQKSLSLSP
light: B3 light
notes: anti-glypican 3 IgG1, C-terminal Gly and Lys of the H chain deleted; also called naturally occurring IgG1
B5: GpH7-TA7/GpH7-TA45/GpL16-k0 (antibody, human IgG1, kappa)
heavy 1: QVQLVQSGAEVKKPGASVTVSCKASGYTFTDYEMHWIRQPPGEGLEWIGAIDPKTGDTAYSESFQDRVTLTADKSTSTAYMELSSLTSEDTAVYYCTRFYSYTYWGQGTLVTVSSASTKGPSVFPLAPSSKSTSGGTAALGCLVKDYFPEPVTVSWNSGALTSGVHTFPAVLQSSGLYSLSSVVTVPSSSLGTQTYICNVNHKPSNTKVDKKVEPKSCDKTHTCPPCPAPEYLWGPSVFLFPPKPKDTLMISRTPEVTCVVVDVSHEDPEVKFNWYVDGVEVHNAKTKPREEQYNATYRVVSVLTVLHQDWLNGKEYKCKVSNKALPAPIEKTISKAKGQPREPQVYTLPPSRKELTKNQVSLTCLVKGFYPSDIAVEWESNGQPENNYKTTPPVLDSDGSFFLYSKLTVDKSRWQQGNVFSCSVMHEALHNRYTQKSLSLSP
heavy 2: B5 heavy 1 with K354D, R433H, K437E
light: B3 light
notes: anti-glypican 3 IgG1 called homodimerized: L234Y/G236W/S298A in both H chains
B6: GpH7-A5/GpH7-B78/GpL16-k0 (antibody, human IgG1, kappa)
heavy 1: not shown
heavy 2: B5 heavy 1 with Y232L, W234G, S237D, A296S, A328L, I330E, K354D, R433H, K437E
light: B3 light
notes: heterodimerized anti-glypican 3 IgG1; S239D/A330L/I332E in one H chain
B7: GpH7-TA7/GpH7-B3/GpL16-k0 (antibody, human IgG1, kappa)
heavy 1: B5 heavy 1
heavy 2: not shown
light: B3 light
notes: heterodimerized anti-glypican 3 IgG1; L234Y/G236W/S298A in one H chain
B8: GpH7-A57/GpH7-B78/GpL16-k0 (antibody, human IgG1, kappa)
heavy 1: B5 heavy 1 with Y232L, W234G, S237D, A296S, A328L, I330E
heavy 2: B5 heavy 1 with Y232L, W234G, S237D, A296S, A328L, I330E, K354D, R433H, K437E
light: B3 light
notes: anti-glypican 3 IgG1 called homodimerized: S239D/A330L/I332E in both H chains
B9: GpH7-TA7/GpH7-B78/GpL16-k0 (antibody, human IgG1, kappa)
heavy 1: B5 heavy 1
heavy 2: B5 heavy 1 with Y232L, W234G, S237D, A296S, A328L, I330E, K354D, R433H, K437E
light: B3 light
notes: heterodimerized anti-glypican 3 IgG1; L234Y/G236W/S298A in one H chain, S239D/A330L/I332E in the other
B10: GpH7-A5/GpH7-B3 variant S337_16H/GpL16-k0 (antibody, human IgG1, kappa)
heavy 1: not shown
heavy 2: not shown
light: B3 light
notes: heterodimerized anti-glypican 3 IgG1, only the GpH7-B3 chain mutated; also called He Ab
B11: GpH7-A5/GpH7-B3 variant S337_11K/GpL16-k0 (antibody, human IgG1, kappa)
heavy 1: not shown
heavy 2: not shown
light: B3 light
notes: as for B10
B12: GpH7-A5/GpH7-B3 variant S337_14T/GpL16-k0 (antibody, human IgG1, kappa)
heavy 1: not shown
heavy 2: not shown
light: B3 light
notes: as for B10
B13: GpH7-A5/GpH7-B3 variant S337_07I/GpL16-k0 (antibody, human IgG1, kappa)
heavy 1: not shown
heavy 2: not shown
light: B3 light
notes: as for B10
B14: GpH7-A5/GpH7-B3 variant S337_08L/GpL16-k0 (antibody, human IgG1, kappa)
heavy 1: not shown
heavy 2: not shown
light: B3 light
notes: as for B10
B15: GpH7-A5/GpH7-B3 variant S337_20W/GpL16-k0 (antibody, human IgG1, kappa)
heavy 1: not shown
heavy 2: not shown
light: B3 light
notes: as for B10
B16: GpH7-A5/GpH7-B3 variant S337_19Q/GpL16-k0 (antibody, human IgG1, kappa)
heavy 1: not shown
heavy 2: not shown
light: B3 light
notes: as for B10
B17: GpH7-A5/GpH7-B3 variant S337_15Y/GpL16-k0 (antibody, human IgG1, kappa)
heavy 1: not shown
heavy 2: not shown
light: B3 light
notes: as for B10
B18: GpH7-A5/GpH7-B3 variant S337_20W/GpL16-k0 (antibody, human IgG1, kappa)
heavy 1: not shown
heavy 2: not shown
light: B3 light
notes: heterodimerized anti-glypican 3 IgG1; mutation in one H chain only; also called He Ab

molecular target: T1, FcγRIIIa(F) extracellular domain with C-terminal His tag (human, UniProt P08637 17-208); test: SPR (Biacore), captured antibody, FcγR analyte, 1:1 Langmuir fit;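 further: surface plasmon resonance at 25 °C in HBS-EP+ running buffer, antibody captured on sensor chip, FcγR flowed over as analyte in the same buffer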
T1 construct: extracellular domain; polymorphic form F158; also called FcγRIIIa F type
T1 sequence (P08637 other isoform, or with tags, fused parts or gaps): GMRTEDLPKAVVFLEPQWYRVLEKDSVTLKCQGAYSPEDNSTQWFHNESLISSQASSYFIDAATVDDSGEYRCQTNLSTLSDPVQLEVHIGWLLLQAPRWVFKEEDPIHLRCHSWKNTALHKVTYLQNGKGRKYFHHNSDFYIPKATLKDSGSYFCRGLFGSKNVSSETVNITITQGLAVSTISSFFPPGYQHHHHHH
Experimental: (§1) The antibody of interest was analyzed for its interaction with FcγR using a BiaCore™ T100, BiaCore™ A100, or BiaCore™ 4000 surface plasmon resonance system (GE Healthcare Japan Corp.). The running buffer used was HBS-EP+ (GE Healthcare Japan Corp.). The assay temperature was set to 25° C. The sensor chips used were: a chip prepared by immobilizing antigenic peptides onto Series S Sensor Chip CM5 (GE Healthcare Japan Corp.) by the amine coupling method; a chip prepared by immobilizing antigenic peptides biotinylated in advance onto Series S Sensor Chip SA (certified) (GE Healthcare Japan Corp.) through their interaction; a chip prepared by immobilizing protein L (ACTIGEN, BioVision, Inc.) onto Series S Sensor Chip CM5 (GE Healthcare Japan Corp.); and a chip prepared by immobilizing protein A/G (Thermo Fisher Scientific K.K.) onto Series S Sensor Chip CM5 (GE Healthcare Japan Corp.). The antibody of interest was captured onto any of these chips and allowed to interact with FcγR diluted with a running buffer. The antibody captured on the chip was washed off through the reaction of 10 mM glycine-HCl (pH 1.5) to regenerate the chip, which was repetitively used.

First: B1
Second: B2
The Kd of the first is 8.6-fold higher: 660 nM for the first, 77 nM for the second.

molecular target: T2, FcγRIIIa(V) extracellular domain with C-terminal His tag (human, UniProt P08637 17-208); test: as above
T2 construct: extracellular domain; polymorphic form V158; also called FcγRIIIa V type
T2 sequence (P08637 other isoform, or with tags, fused parts or gaps): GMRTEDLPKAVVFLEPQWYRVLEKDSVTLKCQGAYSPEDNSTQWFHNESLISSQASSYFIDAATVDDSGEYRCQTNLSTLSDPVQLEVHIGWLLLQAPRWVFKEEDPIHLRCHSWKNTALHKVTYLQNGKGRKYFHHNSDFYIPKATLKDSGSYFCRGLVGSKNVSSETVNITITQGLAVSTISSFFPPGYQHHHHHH
Experimental: as §1

Compared with B1, B2 is 5.4-fold lower in Kd: 86 nM for the first, 16 nM for the second.

molecular target: T3, FcγRIIIa extracellular domain with C-terminal His tag (allotype not given) (human, UniProt P08637 17-208); test: SPR (Biacore), captured antibody, FcγRIIIa analyte, 1:1 Langmuir fit
T3 construct: extracellular domain; also called 3a

B3 and B4 are within 1.5-fold of each other in Kd: 1600 nM for the first, 1200 nM for the second.

Compared with B5, B6 is 61-fold lower in Kd: 3300 nM for the first, 54 nM for the second. The second binds more tightly here.

Going from B7 to B8, the Kd falls from 320 nM to 6.2 nM (52-fold).

In the case of B9, the Kd is reported as 4.7 nM.

molecular target: T3, FcγRIIIa extracellular domain with …; test: SPR; KD of GpH7-G1d/GpL16-k0 for FcγRIIIa divided by KD of this antibody
Experimental: as §1

First: B3
Second: B4
The “KD ratio1” value of the first is lower: 0.75 fold for the first, 1 fold for the second.

Compared with B5, B6 is higher in “KD ratio1” value: 0.37 fold for the first, 23 fold for the second.

Compared with B7, B8 is higher in “KD ratio1” value: 3.8 fold for the first, 199 fold for the second.

In the case of B9, the “KD ratio1” value is reported as 261 fold.

molecular target: T3, FcγRIIIa extracellular domain with …; test: SPR; KD of GpH7-A5/GpH7-B3/GpL16-k0 for FcγRIIIa divided by KD of this antibody
Experimental: as §1

Going from B3 to B5, the “KD ratio2” value falls from 1 fold to 0.49 fold.

First: B6
Second: B7
The “KD ratio2” value of the first is higher: 30 fold for the first, 5.1 fold for the second.

Going from B8 to B9, the “KD ratio2” value rises from 263 fold to 347 fold.

molecular target: T4, FcγRIa (human, UniProt P12314 16-292); test: SPR (Biacore); He Ab binding / HeCon Ab (GpH7-A5/GpH7-B3/GpL16-k0) binding x100;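 further: antibody captured on the sensor chip, soluble FcγR flowed over it in HBS-EP+ running buffer, 25 °C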
T4 construct: extracellular domain; also called 1a
T4 sequence (P12314 other isoform, or with tags, fused parts or gaps): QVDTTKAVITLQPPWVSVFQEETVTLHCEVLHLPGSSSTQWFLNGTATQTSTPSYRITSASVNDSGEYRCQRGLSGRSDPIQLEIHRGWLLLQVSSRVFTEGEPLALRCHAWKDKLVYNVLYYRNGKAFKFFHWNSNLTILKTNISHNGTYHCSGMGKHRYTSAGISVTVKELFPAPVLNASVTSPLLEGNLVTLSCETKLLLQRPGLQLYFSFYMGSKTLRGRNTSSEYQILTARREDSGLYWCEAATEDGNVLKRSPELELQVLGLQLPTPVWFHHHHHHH
Experimental: as §1

B10 and B11 are the same in “He/Con 1a” value: 101% for the first, 101% for the second.

B12 and B13 are the same in “He/Con 1a” value: 102% for the first, 102% for the second.

B14 and B15 are the same in “He/Con 1a” value: 102% for the first, 102% for the second.

B16 and B17 are the same in “He/Con 1a” value: 101% for the first, 101% for the second.

molecular target: T5, FcγRIIa(R) (human, UniProt P12318 34-217); test: as above
T5 construct: extracellular domain; also called 2aR
T5 sequence: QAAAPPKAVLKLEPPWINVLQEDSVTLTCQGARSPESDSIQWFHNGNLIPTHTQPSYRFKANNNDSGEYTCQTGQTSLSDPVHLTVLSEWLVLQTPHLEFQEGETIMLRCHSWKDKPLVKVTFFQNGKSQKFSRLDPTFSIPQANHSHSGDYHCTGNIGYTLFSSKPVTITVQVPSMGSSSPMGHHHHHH
Experimental: as §1

First: B10
Second: B11
The “He/Con 2aR” value of the first is higher: 111% for the first, 105% for the second.

Compared with B12, B13 is lower in “He/Con 2aR” value: 112% for the first, 111% for the second.

First: B14
Second: B15
The “He/Con 2aR” value of the first is lower: 109% for the first, 112% for the second.

Compared with B16, B17 is lower in “He/Con 2aR” value: 108% for the first, 107% for the second.

molecular target: T6, FcγRIIa(H) (human, UniProt P12318 34-217); test: as above
T6 construct: extracellular domain; also called 2aH
T6 sequence: T5 sequence with R134H
Experimental: as §1

First: B10
Second: B11
The “He/Con 2aH” value of the first is higher: 108% for the first, 102% for the second.

First: B12
Second: B13
The “He/Con 2aH” value of the first is higher: 110% for the first, 107% for the second.

Going from B14 to B15, the “He/Con 2aH” value rises from 106% to 108%.

First: B16
Second: B17
The “He/Con 2aH” value of the first is lower: 104% for the first, 106% for the second.

molecular target: T7, FcγRIIb (human, UniProt P31994 43-217); test: as above
T7 construct: extracellular domain; also called 2b
T7 sequence: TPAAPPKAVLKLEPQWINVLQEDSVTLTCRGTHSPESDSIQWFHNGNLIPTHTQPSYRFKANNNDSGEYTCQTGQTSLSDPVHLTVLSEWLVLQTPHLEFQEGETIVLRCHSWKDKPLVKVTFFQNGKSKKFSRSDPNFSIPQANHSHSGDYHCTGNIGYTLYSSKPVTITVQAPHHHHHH
Experimental: as §1

First: B10
Second: B11
The “He/Con 2b” value of the first is higher: 114% for the first, 103% for the second.

First: B12
Second: B13
The “He/Con 2b” value of the first is higher: 114% for the first, 113% for the second.

Going from B14 to B15, the “He/Con 2b” value rises from 109% to 119%.

B16 and B17 are the same in “He/Con 2b” value: 109% for the first, 109% for the second.

molecular target: T3, FcγRIIIa extracellular domain with …; test: SPR (Biacore), captured antibody, FcγRIIIa analyte; binding relative to GpH7-A5/GpH7-B3/GpL16-k0 = 100

For B18, the “He/Con 3a” value was 93.8%.
